Data: the supplement of paper PMC12042874
± gives the uncertainty stated by the source.

Experiment: amyloid nucleation score (Sup35N fusion, yeast selection) (log enrichment); library NNK2; higher = more nucleation; inactive = no reads after selection
Procedure, shortened: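 Random libraries were run with three technical output replicates. In each, psi-negative yeast expressing Sup35N fused to peptides of 20 random codons were induced 24 hours with 100 μM copper sulfate and grown 7 days at 30°C on medium lacking adenine and uracil, and input and output plasmid inserts were Illumina-sequenced. The nucleation score is the DiMSum log enrichment of output over input reads, centred on the mode score of non-aggregating sequences, and sequences under 100 input reads were excluded.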

Substance | amyloid nucleation score
IVRRGAYSTGWMVMMLLQSL | 0.859 ± 0.8
NDCGSNDRLSNTFFWFLLFG | 0.142 ± 0.65
DYRMCI | 0.926 ± 0.48
RMRCLDSVQGLNLIHTDVSV | inactive
YQFTGFLLGRVIASIIRHGV | 0.023 ± 0.45
RLSVLD | 1.34 ± 0.21
TARDVFIAVFA | 0.089 ± 1.1
YTRSAGGLISL | -0.774 ± 1.1
AAACAGIKFLLTFTFGFRTW | inactive
TRSMSSAPADCVASGT | -0.512 ± 0.76
RRKHLWRQRLWTR | -0.425 ± 0.63
LTGLFAGLKGKCLFTVNRGI | -0.318 ± 0.44
VVWARYSVNLWMNLGSQASF | 4.01 ± 0.1
FPGRSSCDHTAMWLL | 0.732 ± 0.4
GLAEYRS | -0.488 ± 0.64
SASWGLQSYNSRCGRLTNRF | 0.524 ± 0.81
LYQSYHELSFVTVHRSSKVD | 2.45 ± 0.15
LLSVASRLLVPFRERGNGS | -0.256 ± 1.1
SHMHEEHIVEECTCSTPRRK | 1.32 ± 0.44
LAVVTCHCSSTCCSYLLNVG | 3.38 ± 0.06
WCSVLRDNKLSR | -1.09 ± 0.45
YVLGEHRIRCGEDYV | 1.77 ± 0.31
TQSWVAISLVRHRSWGSWLG | 3.57 ± 0.07
CVMMSQAFF | 5.22 ± 0.084
GHIMKCGATRQYHCEDP | -0.614 ± 0.79

Substance | amyloid nucleation score
RSLDQSIVNRVVVYFSGWCV | 3.62 ± 0.073
EWVMKSWV | -0.578 ± 1.1
RWVSGQTYVVLSIVR | 0.242 ± 0.28
SYDPSVMAVGSH | -0.135 ± 0.33
VYCFSAFLGQ | 3.63 ± 0.082
ILGVLGFGGSRDRLSTRWGS | 1.66 ± 0.16
LNCYFGHRDPIFSRMNICDY | -0.469 ± 1.1
NRCFEGFAVARFDAGRV | -0.378 ± 1
WDYVQVCPNLLVRTLLFMFA | -0.81 ± 0.32
YRLAWGH | -0.363 ± 1.1
MLCCLCMMVCDR | 8.673 ± 0.032
KIIISYGQCK | 2.71 ± 0.2
HGHASFIRF | 2.13 ± 0.2
YLTFLNASTSRYKLSLVPRR | 4.11 ± 0.082
MSILESIRTRTRRVKGYLSC | 0.315 ± 0.36
CLQSPLYFDWGSGIQISNWL | inactive
SCSISGMVVWDRMVKLSLSL | -0.317 ± 0.48
YILAFVILAMEAWHRV | 3.68 ± 0.086
VSHRG | 2.37 ± 0.076
HLFVASYDKRVECFLSVKGE | inactive
IVKFKKRVDRHLSSGDQLVR | 1.19 ± 0.61
STVWVFRYYNNYWYDQRTLP | 6.807 ± 0.054
SLLMNMS | 0.269 ± 0.37
QRFRHRKTQISVFS | -0.876 ± 1.1
LSVCLHHHNIAWDRCSGR | -0.469 ± 0.37

Substance | amyloid nucleation score
IPTSYSRPITIWGYR | -1.3 ± 0.64
MRRSLFMCILVYDSWLYFSV | 3.15 ± 0.17
STCVCYGSFCEASLWASLDG | 6.58 ± 0.075
IPGVLLTYVIISRAPGGIPD | -0.545 ± 0.64
SHGELEVAMPDTGNI | -0.378 ± 0.32
LKCPGLTREGLSPYKSSLPN | -0.202 ± 1
SRTDRLDGCAWLLYDCTMGD | -0.211 ± 0.53
ILSHTGRVYKLRLYVIQIVR | -0.434 ± 0.61
FRGSAFS | 7.173 ± 0.051
TLGYKFWMGRYRVNSAYGFE | -0.005 ± 0.61
TVWGQECYW | 5.74 ± 0.077
MFSNFLIRKEGRKKVAMVKK | -1.04 ± 0.33
REAARRLGEKPNIAVGFDAG | 0.559 ± 0.44
LNHGNMEYWLSMDVINLSQI | 0.238 ± 0.3
RLCLRDQYSFGQIVDYKCFD | inactive
FAGWIYGCTDRMVCLCSGGF | inactive
RLNAMEESIKSNIYSFWSFY | inactive
TYLLLWSCGWLSWRVICALR | 4.66 ± 0.089
SPTER | 0.053 ± 0.65
MHMYMRSGFLLLFVSWVREC | -0.958 ± 0.76
LTGCAKLGSLKLSLAPVYVD | 0.811 ± 0.82
IITLSYGGCSVGPCGQ | 7.371 ± 0.057
VTCCVTSEWVGFLDWWSDRQ | 10.13 ± 0.043
MCGSDNYILGLFWVYFMTNF | inactive
KWSFF | 4.34 ± 0.081

Substance | amyloid nucleation score
CSMMNLKSFLADCSIPAFTG | -0.962 ± 0.64
RPIKRV | 0.173 ± 0.2
EFRNLT | -0.213 ± 0.18
FPQFNRIWSSNFFAHIEGLN | -1.85 ± 0.44
LDCLRFTDFILIISKFVPVL | 0.026 ± 1.1
TFPMEFLPF | -1.12 ± 0.49
YDVSFTFLWW | 0.242 ± 0.61
SFTAHTSIHASNLYTDLLLC | 3.41 ± 0.063
LVSVVNMVADSSRKSSQGEL | 4.875 ± 0.039
VSAGWSTST | 3 ± 0.09
KYNQPIMNSSSRGADCGCVR | 4.16 ± 0.07
LVWIEMVSF | -0.544 ± 0.78
LYRVILLSSRHNGSNIWAEF | 0.127 ± 0.74
CVFNTFMNDKIIGRLWPTDW | 2.91 ± 0.15
PHDVFRWCVCAVPGSERSTG | 0.815 ± 0.25
SHWLHGFSH | inactive
DKRLCLMVCNLLVYYMPF | -0.952 ± 0.63
FMSRTWLAYFTCKMLHGLLR | 0.863 ± 0.41
AINCKTGRKLNWIVFGRFTV | -0.315 ± 0.25
FRFWLIDAHLLWDFSYLDTR | 3.28 ± 0.13
TYGTTELVLHRTEINMMRNQ | 3.25 ± 0.12
LDSSMSTGNLRLCFFESICS | 0.232 ± 0.56
RRPIGDW | 0.169 ± 0.36
LSDCE | inactive
VGLSPSSASTHLRN | 1.07 ± 0.33

Substance | amyloid nucleation score
ILAVRQV | 0.054 ± 0.79
RCKAAGCIHLVFFVCRDACC | 0.605 ± 0.66
CPRVSVSSVLMGKLFL | -1.15 ± 0.54
CAYGLFVNVFSVDADLRYKY | 7.544 ± 0.022
MRRRMQSWANRSLSTGWGMF | -0.091 ± 0.38
FKYVFCSDEVGSMYVMCNCM | 8.568 ± 0.034
TQSWDEWSYGNITGSTSYRL | 0.25 ± 0.23
MMNTKFINWDKMLDIGYRAD | 0.877 ± 0.8
ITPMFPCLVVWWWESR | -0.235 ± 0.61
FFGAFGPRWGNYENITLCSY | inactive
HGTCISSGNKWARWTLS | 0.355 ± 0.65
RGVCLNNLMWGTLGTRKALL | -0.797 ± 1
YISCYCRSSFRMLSVVSDYR | 2.54 ± 0.077
KIFSSF | -1.01 ± 1.1
NPEDPQSMLLVVGCVEKN | 0.214 ± 0.54
VATGLRAWWWTGKEEVGLVS | 1.69 ± 0.24
KGRGEMSLLFYSILLVGFCL | inactive
PMSSMMRGSDPKV | 0.119 ± 0.76
TDASYNRMVTYFKWIISGYR | -1.39 ± 0.54
VRWTTFRECWAGYGGYVIGR | 1.19 ± 0.17
MRSFGPIFSVLL | -0.067 ± 0.34
YVFIYESPYSSRSCPNALVS | -0.011 ± 0.46
NTEKSIVVRDMIKDSYPFSV | inactive
KMMLSTRSQYPS | 0.489 ± 0.36
HHLKGPSQPSIVEIFE | -0.081 ± 0.31

Substance | amyloid nucleation score
FLFVNDVGRE | inactive
GMLEGCRHHGIGWKGYACGQ | 2.94 ± 0.087
DITYEYTTWGFLRRQAIRRP | 3.63 ± 0.089
GGTSLRNTLGICLNYLQS | inactive
KTFRCRRCGNN | 0.721 ± 0.6
GSGSVAEIMRNVFLVCSW | -0.115 ± 0.34
FGFSEGEMVPSFI | -1.21 ± 1
SLPGLGFLRLFFQ | 0.089 ± 0.55
QVYCQAVNYKENRVYFMGVP | 5.2 ± 0.054
YTMGLVSFCLQLGSASFDI | 3.56 ± 0.12
VWLALEWVLGWSTMR | 1.73 ± 0.19
YALCLKALEFMVMGLPSSRM | -0.049 ± 0.76
TGNVTGRLFWNVFVRYSGVL | -0.03 ± 0.55
NTLLILHIDICYVYSVILTF | -0.942 ± 0.76
FIMYFVASRVNSYSSTLRVN | inactive
LNTTLLTRPVLSSYRGSTAE | 1.23 ± 0.45
TSSFIRLNYSNALLNKFWSN | -1.99 ± 0.75
CYSTLGLSG | 0.516 ± 0.81
MRSTALYDILRRPWFNFSAY | -0.014 ± 0.76
HSSGCYF | 0.081 ± 1.1
RGIKNVWNL | 0.461 ± 0.54
AESICSSVRSYGMSSFRDPE | -0.887 ± 0.64
VYTRKCGLAFRVSSGT | 0.574 ± 0.5
DYYRPIIGH | -0.407 ± 0.28
FSWDPGMIWGKI | 7.203 ± 0.053

Substance | amyloid nucleation score
YKSVERTASRMIQIEVFWEY | inactive
CHSNKSCRSHIEEI | -0.377 ± 0.5
DLAELISVKYLVTVSLWAGS | 0.621 ± 0.57
GVRSNLSYNIFVTCAMRASG | inactive
LILRCLC | 0.235 ± 0.8
FDALY | 0.025 ± 0.25
AWLLTLPKLYSLEC | -0.434 ± 0.6
SAWVTNIFDNKLCVAVTEFR | 4.04 ± 0.06
YKHFSGFLDFQVPAFSGYVS | inactive
AAWNRPHMERRFSYEGYYIV | -0.508 ± 0.63
AYDFGVA | -0.263 ± 1.1
DFGRWSTSGSVPCSGATCAV | 2.43 ± 0.2
ATCSPSVSRVLGLCSWECFR | -0.382 ± 0.76
INVSVFVVFRNRQRLKC | 7.363 ± 0.058
FRNAGIKRCPFVTRDQSTHF | inactive
IKILLCRSGARIGVSCDMSC | 0.706 ± 0.74
LRSQSHR | 1.31 ± 0.33
LSRWKDRSRGWRGDAAPRIR | 0.539 ± 0.56
YAVWLDMGFILIIACVGKYN | -0.747 ± 1.1
KCVVKELYWLWFHLSSVNLY | -1.23 ± 1.1
SFWISVGLWFWLGEYMGRNE | 2.17 ± 0.12
THTLRGLQANRMISNNMDTI | -0.402 ± 0.61
